Measured values published in US20220362330A1, “Compositions and Methods for Increasing Epithelial Barrier Function” (The Board of Trustees of the Leland Stanford Junior …, priority 2019, published 2022).

Assays:
genital mucosal barrier [1] = experiment: Murine tissue permeability assay, low molecular weight fluorescent molecules given intravaginally; format: in vivo, mice
Description: Effects of progestins on genital mucosal barrier permeability were evaluated by intravaginally (ivag) administering 457 Da and 70 KDa-sized fluorescent molecules to mice in estrus or diestrus-stage or after DMPA or LNG treatment. Mice were grouped as follows: untreated in estrus, untreated in diestrus, DMPA treated, or LNG treated. The mice were intravaginally administered a PBS solution containing Lucifer yellow (457 Da) and Texas-Red-conjugated dextran (70 KDa). Animals were euthanized 45 minutes later to assess vaginal tissue penetration of these molecules by confocal microscopy. […] Mucosal permeability was increased moderately by diestrus, but dramatically by DMPA or LNG. Conversely, permeability increases were negligible in estrus-stage mice and mice treated with MePRDL or DMPA and RU486. This indicates exogenous progestins increase genital mucosal permeability.
To evaluate mucosal permeability to low molecular weight molecules, indicated groups of mice were sedated, and 10 μL of a PBS solution containing 62.5 μg of dextran Texas-Red® (DR) (MW=70,000 Da) and 50 μg of Lucifer yellow CH, lithium salt (LY) (MW=457.2 Da) (both from Life Technologies) administered intravaginally. 45 minutes later, mice were euthanized, and excised vaginal tissue fixed in formaldehyde. Fixed tissue was embedded in agarose, and 200-300 μm specimens were sectioned with a vibratome. After counterstaining with 4,6-diamidino-2-phenylindole (DAPI), confocal microscopy images were acquired by sequential scanning to prevent fluorescence crossover.

desmoglein-1a (DSG1a) = experiment: qRT-PCR of Dsg1a gene expression in vaginal tissue; format: in vivo, mice; settings: for relative expression of Dsg1a: DMPA-treated mice, His-tagged ephrins 1.5 ug/30 uL ivag; for relative expression of Dsg1a / Dsg1a gene expression in vaginal tissue: 24 h; for Dsg1a gene expression in vaginal tissue: OVX mice, single ivag dose
Description: (§1) To define progestin-mediated changes in mucosal permeability, vaginal tissue from mice in estrus, diestrus, or after DMPA or LNG treatment was used to measure expression of the desmosomal cadherins desmoglein-1a (DSG1a) and desmocollin-1 (DSC1).
(§2) Human ectocervical and murine vaginal tissues were immediately immersed in 1 mL of RNAlater® (Qiagen), stored for 24 h at 4° C., and stored long-term at −80° C. RNA isolated using the RNeasy Lipid Tissue Kit (Qiagen) using manufacturer's instructions was re-suspended in nuclease-free water and quantified using a NanoDrop spectrophotometer (Thermo Scientific). The following mouse primers were utilized: desmocollin 1 (Mm00496525_ml), desmoglein-1α (Mm00809994_s1), ephrinA3 (Mm01212723_g1) and pyruvate carboxylase (Mm00500992_ml) as housekeeping reference gene (all from Thermo Scientific). These human primers were used: desmoglein-1 (Hs00355084_m1) and glucose-6-phosphate isomerase (Hs00976711_m1) as a housekeeping reference gene. To define relative gene expression, 100 ng of RNA was mixed with TaqMan® RNA-to-Ct™ 1-Step Kit and adequate primer (final volume of 10 μL/well) using manufacturer's instructions (Life Technologies). qRT-PCR was performed using a Quantstudio3 Thermal Cycler, and data analyzed via Quanstudio Software (Applied Biosystems).

desmocollin-1 (DSC1) = experiment: qRT-PCR of Dsc1 gene expression in vaginal tissue; format: in vivo, mice
Description: as §1, §2

DSG1 protein = DSG1 protein levels in vaginal tissue, immunofluorescent staining and confocal microscopy; format: in vivo, mice; settings: for levels of DSG1 protein in vaginal tissue: His-tagged ephrins 1.5 ug/30 uL ivag; for levels of DSG1 protein in vaginal tissue / DSG1 protein levels in vaginal tissue: 24 h; for DSG1 protein levels in vaginal tissue: OVX mice, single ivag dose
Description: Excised mouse vaginas were formaldehyde fixed and paraffin embedded (FFPE), and 10 μm sections mounted on glass slides and de-paraffinized by sequential immersion in 100% xylene, 100% ethanol, 96% ethanol, and sterile DEPC-treated water. Antigen retrieval was performed using 10 mM sodium citrate buffer (pH 6.0) containing 0.05% Tween 20 (both Sigma-Aldrich) (20 minutes at 95° C.). After 3 PBS washes, sections were incubated overnight in 10% normal goat serum (Abcam, Cambridge Mass.) at 4° C., then incubated for 1 h at ambient temperate with rabbit anti-desmoglein-1 (clone EPR6766(B)) antibody, washed and incubated for 1 h with AlexaFluor® 488-labeled goat anti-rabbit IgG (antibodies from Abcam) (all antibodies were diluted in PBS with 1% BSA and 0.05% Tween 20). Sections were stained with DAPI and evaluated for levels of DSG1 protein (defined by calculating pixel numbers per 100 μm^2) using confocal microscopy and ImageJ software.

[2] = test system: claudin-1, occludin, and tight junction protein 1; experiment: Gene expression of other cell-cell adhesion molecules in vaginal tissue; format: in vivo, mice
HSV-2 = experiment: Lethal genital HSV-2 infection; format: in vivo; settings: DMPA-treated mice
Description: Mice were sedated with xylazine (Lloyd Laboratories, Shenandoah Iowa) and ketamine hydrochloride (JHP Pharmaceuticals, LLC Rochester Mich.), and intravaginally infected with 10^4 plaque-forming units (pfu) of WT HSV-2 333 in 10 μL of RPMI. Mouse mortality was evaluated daily for 15 days.

HSV-1 = experiment: Genital HSV-1 GFP infection, virus replication in vaginal epithelium; format: in vivo, mice; settings: DMPA-treated mice
Description: Estrus-stage or DMPA-treated mice were intravaginally administered vehicle or recombinant mouse Fc-EFNA3 at 1.5 ug/30 uL 24 h prior to genital infection with 3×10^3 PFU HSV-1q GFP (fluorescent virus). Vaginal tissue was recovered 24 h after infection and evaluated for HSV-1 replication in the vaginal epithelium using confocal microscopy. […] To evaluate if treatment with rm-EphrinA3 protects mice from lethal HSV-2 infection, DMPA-treated mice were intravaginally administered Fc- or His-tagged versions of the rm-protein prior to infection. […] Because the microarray data indicated EphrinA1, EphrinA2, EphrinA3, EphrinA4, and EphrinA5 were upstream regulators of Dsg1 and Dsc1 expression in the mouse vagina, we hypothesized that capacity of EphrinA3 to increase cell-cell adhesion molecule expression may be shared by other members of the EphrinA family.

genital mucosal barrier [3] = experiment: Murine tissue permeability assay, low molecular weight fluorescent molecules given intravaginally; format: in vivo, mice; settings: OVX mice, single dose, vs untreated OVX mice
[4] = progestin-treated mice vs mice in estrus

For `C#C[C@]1(O)CC[C@H]2[C@@H]3CCC4=CC(=O)CC[C@@H]4[C@H]3CC[C@@]21CC` [LNG, reference compound], the “penetration of the 457 Da molecules into vaginal tissue” value (genital mucosal barrier [1]; confocal images, 45 minutes after ivag administration) was “greatest penetration”, the Mucosal permeability increase (genital mucosal barrier [1]; mice, ivag Lucifer yellow (457 Da) and Texas-Red dextran (70 KDa), 45 minutes, confocal microscopy) was “dramatically” and the “DSG1a gene expression in vaginal tissue” value (desmoglein-1a (DSG1a); [4]) was “decrease gene expression levels”. For the same molecule, the “DSC1 gene expression in vaginal tissue” value (desmocollin-1 (DSC1); [4]) was “decrease gene expression levels”, the “DSG1a protein expression in vaginal tissue” value (DSG1 protein; [4]) was “significantly reduced” and the “gene expression of claudin-1, occludin, and tight junction protein 1” value [2] was “did not alter”.

B1: EphrinA3: mouse recombinant EphrinA3; Fc- or His-tagged version not always specified at the place (protein, UniProt O08545 23-206, looked up)
Ephrin-A3: QGPGGALGNRHAVYWNSSNQHLRREGYTVQVNVNDYLDIYCPHYNSSGPGGGAEQYVLYMVNLSGYRTCNASQGSKRWECNRQHASHSPIKFSEKFQRYSAFSLGYEFHAGQEYYYISTPTHNLHWKCLRMKVFVCCASTSHSGEKPVPTLPQFTMGPNVKINVLEDFEGENPQVPKLEKSISG
With B1 the “genital mucosal barrier function / permeability to LMW fluorescent molecules” value (genital mucosal barrier [1]; DMPA-treated mice, one ivag dose of 1.5 ug/30 uL) was “enhanced genital mucosal barrier function”, the “relative expression of Dsg1a” value (desmoglein-1a (DSG1a)) was “increased relative expression” and the “Dsg1a gene expression in vaginal tissue” value (desmoglein-1a (DSG1a)) was “greatly improved”. The “Dsg1a gene expression in vaginal tissue” value (desmoglein-1a (DSG1a); listed as EFNA3) was “increases”, the “Dsc1 gene expression in vaginal tissue” value (desmocollin-1 (DSC1); OVX mice, single ivag dose, 24 h) was “increases” and the “levels of DSG1 protein in vaginal tissue” value (DSG1 protein; DMPA-treated mice) was “similarly increase”. For the same molecule, the “levels of DSG1 protein in vaginal tissue” value (DSG1 protein; DMPA-treated mice, listed as EFNA3) was “increased levels of DSG1 protein”, the “DSG1 protein levels in vaginal tissue” value (DSG1 protein) was “greatly improved” and the “DSG1 protein levels in vaginal tissue” value (DSG1 protein; listed as EFNA3) was “increases”. For the same molecule, the reduction of mortality (HSV-2; one ivag dose (Fc- or His-tagged) prior to lethal HSV-2 infection, compared to DMPA alone) was “approximately 25%”, the “HSV-1 replication in mouse genital tissue” value (HSV-1) was “reduced” and the “genital mucosal barrier function (penetration of lucifer yellow, 457 Da)” value (genital mucosal barrier [3]) was “improved function of the genital mucosal barrier”. For the same molecule, the “genital mucosal barrier function (penetration of lucifer yellow, 457 Da)” value (genital mucosal barrier [3]; listed as EFNA3) was “enhanced genital mucosal barrier function”.

B2: His-EFNA3: Ephrin A3 Protein, Mouse, Recombinant (His Tag), SEQ ID NO: 15 (protein, UniProt P52797 23-214, looked up)
Ephrin-A3: QGPGGALGNRHAVYWNSSNQHLRREGYTVQVNVNDYLDIYCPHYNSSGVGPGAGPGPGGGAEQYVLYMVSRNGYRTCNASQGFKRWECNRPHAPHSPIKFSEKFQRYSAFSLGYEFHAGHEYYYISTPTHNLHWKCLRMKVFVCCASTSHSGEKPVPTLPQFTMGPNVKINVLEDFEGENPQVPKLEKSISG
modifications: His tag
In the case of B2, the “levels of DSG1 protein in genital tissue” value (DSG1 protein; DMPA-treated mice, ivag in 10 μL of PBS, 24 hours) is reported as “increased levels of DSG1 protein” and the “survival after genital HSV-2 infection” value (HSV-2; 10^4 pfu of HSV-2) is reported as “improves the survival”.

B3: EphrinA2: Ephrin A2/EFNA2 Protein, Mouse, Recombinant (His Tag), SEQ ID NO: 17 (protein)
chain: MAPAQRPLLPLLLLLLPLRARNEDPARANADRYAVYWNRSNPRFQVSAVGDGGGYTVEVSINDYLDIYCPHYGAPLPPAERMERYILYMVNGEGHASCDHRQRGFKRWECNRPAAPGGPLKFSEKFQLFTPFSLGFEFRPGHEYYYISATPPNLVDRPCLRLKVYVRPTNETLYEAPEPIFTSNHHHHHH
modifications: His tag
For B3, the “relative expression of Dsg1a” value (desmoglein-1a (DSG1a)) was “increased relative expression”, the “levels of DSG1 protein in vaginal tissue” value (DSG1 protein; DMPA-treated mice) was “similarly increase” and the “levels of DSG1 protein in vaginal tissue” value (DSG1 protein; DMPA-treated mice, listed as EFNA2) was “increased levels of DSG1 protein”.
